# B1: VCAM-Ig: recombinant VCAM-1 Ig fusion, R&D Systems (protein)
# chain: FKIETTPESRYLAQIGDSVSLTCSTTGCESPFFSWRTQIDSPLNGKVTNEGTTSTLTMNPVSFGNEHSYLCTATCESRKLEKGIQVEIYSFPKDPEIHLSGPLEAGKPITVKCSVADVYPFDRLEIDLLKGDHLMKSQEFLEDADRKSLETKSLEVTFTPVIEDIGKVLVCRAKLHIDEMDSVPTVRQAVKELQVYISPKNTVISVNPSTKLQEGGSVTMTCSSEGLPAPEIFWSKKLDNGNLQHLSGNATLTLIAMRMEDSGIYVCEGVNLIGKNRKEVELIVQEKPFTVEISPGPRIAAQIGDSVMLTCSVMGCESPSFSWRTQIDSPLSGKVRSEGTNSTLTLSPVSFENEHSYLCTVTCGHKKLEKGIQVELYSFPRDPEIEMSGGLVNGSSVTVSCKVPSVYPLDRLEIELLKGETILENIEFLEDTDMKSLENKSLEMTFIPTIEDTGKALVCQAKLHIDDMEFEPKQRQSTQTLYVNVAPRDTTVLVSPSSILEEGSSVNMTCLSQGFPAPKILWSRQLPNGELQPLSENATLTLISTKMEDSGVYLCEGINQAGRSRKEVELIIQVTPKDIKLTAFPSESVKEGDTVIISCTCGNVPETWIILKKKAETGDTVLKSIDGAYTIRKAQLKDAGVYECESKNKVGSQLRSLTLDVQGRENNKDYFSPE
# modifications: left off: Ig (Fc, from the name VCAM-Ig), end not stated, kept
# notes: recombinant VCAM-1 Ig fusion, R&D Systems
# How the values were obtained:
# [1] = tested on: CD4 D1D2; test: SPR cross-inhibition: ⍺4β7 binding to immobilized CD4 D1D2 after preincubation of the surface with CD4 mAbs; settings: surface preincubated with mAb, Fig 8C
# Source text: Fig 8 Mutating a gp120 contact site in CD4 D1 abrogates CD4-⍺4β7 interactions. (A) Positions of amino acid substitutions introduced into D1D2-Ig⍺tp are indicated on a space-filling model of CD4 D1D2. Substitutions at S42/F43 in D1 (green) and K171 in D2 (purple) are shown. Approximate locations of mAb Leu3A and ibalizumab epitopes are indicated. (B) Flow-cytometric analysis of increasing amounts of D1D2-Ig⍺tp and mutant derivatives binding to ⍺4β7 on CD8^+ T cells. Y-axis indicates % cells bound. (C) SPR analysis of soluble ⍺4β7 binding to a D1D2 coated surface following preincubation of the surface with ibalizumab (red), mAb Leu3A (light green), or ⍺4β7 (dark green). Y-axis indicates the mass of soluble ⍺4β7 bound at the end of the association phase. Mass of prebound inhibitors is subtracted. (D) Flow-cytometric analysis of unlabeled gp120 inhibiting PE labeled D1D2-Ig⍺tp binding to ⍺4β7 on CD8^+ T cells. The integrin ⍺4 antagonist FG was employed as a control. Y-axis indicates MFI.
# Experiments were performed using a Biacore 3000 instrument (Cytiva Life Sciences) using CM4 or CM5 sensor chips. The data were evaluated using BIAevaluation 4.1.1 software (Cytiva Life Sciences). […] The ability of each analyte to inhibit either itself or ⍺4β7 was determined by comparing the binding of ⍺4β7 in the absence or presence of the listed pre-bound analytes as previously described. […]
# [2] = tested on: ⍺4β7 on RPMI8866 cells; test: Flow cytometry: MAdCAM-Ig staining of RPMI8866 cells with ⍺4 and β7 antagonists; type: binding, human; settings: antagonist at 1 μg/ml
# Source text: (§1) Several mAbs and small molecule antagonists of ⍺4β7 and ⍺4β1 have been developed to treat diseases, including IBD and MS. […] Vedolizumab and etrolizumab are β7 mAbs, based on murine mAbs Act-1 and FIB504, respectively. Both are used to treat IBDs, [50, 51]. Natulizumab is an ⍺4 specific humanized version of the mouse mAb HP2/1 used to treat Multiple Sclerosis (MS). […] To determine whether these antagonists block CD4 binding to α4β7, we stained RPMI8866 cells with D1D2-Ig⍺tp in the absence or presence of increasing concentrations of each (Fig 3).
# (§2) Y-axis indicates gMFI. Dashed and solid lines represent gMFI of D1D2-Ig⍺tp and MAdCAM-Ig respectively, in the absence of any antagonist.
# (§3) Cells were stained with fluoresceine conjugated mAbs or recombinant proteins using standard procedures preceded by Fc receptor blocking with human IgG. Buffers used were 10 mM HEPES 150 mM NaCl (HBS Buffer) with 100 μM CaCl2. 1 mM MnCl2 was also included, unless otherwise specified.
# [3] = tested on: ⍺4β7 on primary CD8^+ T cells; test: Flow cytometry: FAM-conjugated pCD4^165-178 binding to RA-treated primary CD8^+ T cells; design: species or system human; settings: FAM-Ttds-labelled peptide 1.25 μg/200,000 cells in 100 μl; MnCl2; 3 independent experiments
# Source text: To further investigate the interaction between pCD4^165-178 and ⍺4β7 we attached a fluorescein dye to its amino terminus via a trioxatridecan-succinamic acid (Ttds) linker (Fig 5A). A scrambled pCD4^165-178 was employed as a control. […] FIB504 and vedolizumab inhibited binding by ~50%. This inhibition pattern resembles the one we obtained when inhibiting D1D2-Ig⍺tp with the same antagonists (Fig 3). We conclude that the CD4 D2 G β-strand binds directly to the headpiece region of ⍺4β7 in a cation dependent manner. Support for this conclusion, in the form of site directed mutagenesis within the D2 G β-strand is provided below.
# Fig 5 Direct binding of pCD4^165-178 to ⍺4β7 on primary T cells. (A) Sequence of FAM -conjugated pCD4^165-178 and a scrambled derivative (FAM-scr pCD4^165-178). (B) Flow-cytometry derived histogram of pCD4^165-178 binding to RA -cultured CD8^+ T cells. pCD4^165-178 in the presence (green), or absence of Mn^++(black). Unstained cells are shown (grey). (C) Binding of pCD4^165-178 and its scrambled derivative to CD8^+ T cells in the presence of MnCl2 as in panel B, and in the presence of ⍺4 and ⍺4β7 antagonists, as indicated. Y-axis indicates % cells bound. Error bars represent standard error from 3 independent experiments.
# Cells were stained with fluoresceine conjugated mAbs or recombinant proteins using standard procedures preceded by Fc receptor blocking with human IgG. Buffers used were 10 mM HEPES 150 mM NaCl (HBS Buffer) with 100 μM CaCl2. 1 mM MnCl2 was also included, unless otherwise specified. Buffer without divalent cations included 0.1 mM EDTA. Unlabeled mAb or protein inhibitors were preincubated with cells or proteins at a 5X molar excess for 15 min on ice. FAM labeled peptides were used at 1.25 μg/ 200,000 cells in a 100 μl volume. Data were acquired using a FACSCanto II (BD Biosciences) and analyzed with FlowJo software (BD Biosciences). Plotted MFI values represent absolute values.
# [4] = tested on: ⍺4β7 on RPMI8866 cells; test: Flow cytometry: D1D2-Ig⍺tp staining of RPMI8866 cells with ⍺4 and β7 antagonists; type: binding, human; settings: antagonist at 10 μg/ml, 1 mM MnCl2
# Source text: as §1, §2, §3
# [5] = tested on: ⍺4β7 on RPMI8866 cells; test: Flow cytometry: cross-inhibition of MAdCAM-Ig, VCAM-Ig and D1D2-Ig⍺tp binding to RPMI8866 cells; design: species or system human; settings: increasing concentrations of unlabeled inhibitor, Fig 2C, 2D
# Description: Cis interactions between various integrins and leukocyte receptors are known to regulate immune cell functions. To determine whether CD4 inhibits MAdCAM-1 or VCAM-1 binding to ⍺4β7 we preincubated RPMI8866 cells with labelled MAdCAM-Ig or VCAM-Ig in the presence of increasing concentrations of unlabeled D1D2-Ig⍺tp. […] This implies that MAdCAM-1 and VCAM-1, acting in trans, may interfere with CD4-⍺4β7 interactions. What remains unknown is whether interactions between ⍺4β7 and CD4 impact CD4 migration into the TCR and subsequent interactions with MHC II (Fig 2E).
# Fig 2 Cross-inhibition of MAdCAM-Ig, VCAM-Ig and D1D2-Ig⍺tp binding to ⍺4β7. Flow cytometric analysis of (A) PE -conjugated MAdCAM-Ig or (B) PE -conjugated VCAM-Ig binding to RPMI8866 cells pre-incubated with increasing concentrations of unlabeled D1D2-Igαtp. Cell preincubated with increasing concentrations of (C) unlabeled MAdCAM-Ig or (D) VCAM-Ig followed by PE -conjugated D1D2-Ig⍺tp. Y-axis indicates gMFI. Dashed line indicates gMFI in the absence of any inhibitor.
# as §3, with “[…] Data were acquired using a FACSCanto II (BD Biosciences) and analyzed with FlowJo software (BD Biosciences). […]” for “1 mM MnCl2 was also included, unless otherwise specified.”
# [6] = tested on: ⍺4β7; test: SPR binding kinetics: recombinant ⍺4β7 passed over ligand-coated surfaces (S1 Table); settings: SPR Biacore 3000, ligand immobilized, ⍺4β7 analyte, HBS pH 7.4, 1 mM MnCl2, 25°C
# Description: To measure the specific affinity of CD4–⍺4β7 interactions we developed a surface plasmon resonance (SPR) -based assay in which recombinant ⍺4β7 was passed over a surface coated with a 23 kD D1D2 protein (aa 1–183). For comparison we prepared surfaces with recombinant MAdCAM-Ig, VCAM-Ig, monomeric gp120, and a SOSIP env trimer (S1 Table). Assays were carried out in the presence of MnCl2 to present ⍺4β7 in an active conformation. […] This rate of dissociation was similar to that of both MAdCAM-Ig and VCAM-Ig with ⍺4β7 and is indicative of a relatively high-affinity interaction.
# Experiments were performed using a Biacore 3000 instrument (Cytiva Life Sciences) using CM4 or CM5 sensor chips. The data were evaluated using BIAevaluation 4.1.1 software (Cytiva Life Sciences). The chip surface was activated by injecting 35 μl of a 1:1 mixture of 0.05 M N-hydroxysuccinimide and 0.2 M N-ethyl-N-(dimethylaminopropyl) carbodiimide at 5 μl/min. NeutrAvidin, HIV gp120, sCD4 (D1D2) or Hu-MAdCAM-Ig (R&D Systems) at concentrations of 5 μg/ml in 10mM NaOAc, pH 4.5, were immobilized to 250–750 resonance units (RU). After the proteins were immobilized to the desired densities, unreacted sites were blocked with 35 μl of 1 M Tris-HCl (pH 8.0). Biotinylated cyclic V2 peptides (1 μg/ml in 20 mM Tris-HCl, pH 8.0) were bound to the NeutrAvidin surfaces to densities of approximately 250–300 RU. One surface was activated and blocked without ligand as a control surface for non-specific binding. Signal from the control surface was subsequently subtracted. Running buffer was HBS (pH 7.4), 1 mM MnCl2, 0.005% Tween- 20, 0.05% soluble carboxymethyl-dextran. Binding experiments were carried out at a flow rate of 25 μl/min at 25°C. After a 2 min injection, the surface was washed for an additional 2 min in running buffer allowing dissociation of the bound ligand from the surface. The surfaces were regenerated by multiple injections of 4.5 M MgCl2 at a flow rate of 100 μl/min. Inhibition of ⍺4β7 binding by linear V2-loop and CD4 derived peptides was carried out by pre-incubating ⍺4β7 with the peptides in running buffer at the indicated concentrations for 2 hours at room temperature prior to passing them over the prepared surfaces as described above. Cross-inhibition experiments were performed by passing either buffer or the listed analytes over a surface to which sCD4 (D1D2) had been immobilized, followed by a secondary sequential injection of ⍺4β7. The ability of each analyte to inhibit either itself or ⍺4β7 was determined by comparing the binding of ⍺4β7 in the absence or presence of the listed pre-bound analytes as previously described. Illustration of the dynamic range of range of linear peptide inhibition assays is provided in S4 Fig.
# [7] = tested on: ⍺4β7 on RPMI8866 cells; test: Flow cytometry: ligand staining of ⍺4β7-expressing cells in buffers with different divalent cations; type: binding, human; settings: absence of divalent cations (0.1 mM EDTA)
# Source text: Fig 1 Binding of soluble CD4 to ⍺4β7 on CD4^+ T cells. (A) Schematic of D1D2-Ig⍺tp. (B) Flow-cytometry histogram of PE-conjugated D1D2-Ig⍺tp staining of CD4^+ T cells alone (blue) or in the presence of either the anti ⍺4 mAb 2B4 (green) or an irrelevant mAb (black-dashed). Cells stained with PE-conjugated MicA-Ig⍺tp (red), along with unstained cells (grey) are included. X-axis indicates geometric mean fluorescence intensity (gMFI). (C) 293T cells untransfected or co-transfected with ⍺4 and β7 expression vectors stained with either PE-D1D2-Ig⍺tp or PE-MAdCAM-Ig in the absence or presence of the ⍺4 antagonist FG. Y-axis indicates gMFI. (D) CD4^+ T cells stained with anti CD45RO (x-axis) anti β7 (y-axis) (left), or with anti CD45RO (x-axis) and D1D2-Ig⍺tp (y-axis) (right). % cells in each quadrant, as indicated. (E) CD4^+ T cells stained as in B, with lower MW forms of oligomerized D1D2-Ig⍺tp. Left Y-axis indicates gMFI (bars), right Y-axis indicates relative MW (kDa) (•). […]
# Cells were stained with fluoresceine conjugated mAbs or recombinant proteins using standard procedures preceded by Fc receptor blocking with human IgG. […] Data were acquired using a FACSCanto II (BD Biosciences) and analyzed with FlowJo software (BD Biosciences). […]
molecule,measurement,setting,value
Ibalizumab: CD4 D2 mAb,inhibition of ⍺4β7 binding to surface immobilized CD4 D1D2 (in words),[1],failed to inhibit
Vedolizumab: β7 mAb based on murine mAb Act-1,inhibition of MAdCAM-Ig binding (in words),[2],blocked MAdCAM-Ig efficiently
same,reduction of pCD4^165-178 binding to CD8^+ T cells,[3],~ 50%
same,reduction of D1D2-Ig⍺tp binding,[4],~ 50%
B1,inhibition of PE-conjugated D1D2-Ig⍺tp binding to ⍺4β7 (in words),[5],inhibited D1D2-Ig⍺tp binding to ⍺4β7 in a dose dependent manner
same,KA,[6],2.76e+07 M⁻¹
same,ka,[6],38700 M⁻¹ s⁻¹
same,kd,[6],0.00141 s⁻¹
same,binding to ⍺4β7 (in words),[7],failed to bind

# From publication PMC10732398 (PLOS Pathogens, 2023)
